Data as given in patent US12012446B2, “Epstein-Barr virus antibodies and uses thereof” (priority 2017, dated 2024).

B1: HB14: murine anti-EBV gp350 mAb, IgG1 κ; SEQ ID NO: 124 / 125 (antibody, V domains shown)
VH: SGAELVRPGASVNLSCKALGYTFTDYEMHWVKQTPVYGLEWIGTIHPRRGGTAYNQRFKGKAALTADKSSSTAYMELSSLTSEDSAVYYCARYGYPWYFDVWGAGTTVTVSS
VL: LSLPVSLGDQASISCRSSQSIVHDNGNTYLEWYLQKPGQSPKLLIYKVSNRFSGVLDKFSGSGSGTDFTLKISRVEAEDLGIYYCFQGSHVPPTFGGGTKLEIK
modifications: heavy chain mAb HB14; light chain mAb HB14
B2: HB8: murine anti-EBV gp350 mAb, IgG1 κ; SEQ ID NO: 114 / 115; HB18 has identical VH and VL (antibody, V domains shown)
VH: PELKKPGETVKISCKASGYSFTNYGMNWVKQAPGKGLKWMGWINTYTGEPTYADDFKGRFAFSLETSASTAFLQINNLKNEDTATYLCARYYYGSVYSAWFAYWGQGTLVTVSAAKTTPPSVYPLAPGSAAQTNSMVTLG
VL: LSLPVSLGDQASISCRSSQSIVHSNGNTYLEWYLQKAGQSPKLLIYKVSNRFSGVPDRFGGSGSGTDFTLKISRVEAEDLGVYYCFQGSHVPYTFGGGTKLEIKRADAAPTV
modifications: heavy chain mAb HB8; light chain mAb HB8
notes: murine anti-EBV gp350 mAb, IgG1 κ; HB18 has identical VH and VL
B3: HB10: murine anti-EBV gp350 mAb, IgG1 κ; SEQ ID NO: 118 / 119; non-nAb (protein)
chain 1: B2 VL
chain 2: SSLSASLGDRVTISCRASQDIGNYLNWYQQKPDGTVKLLIYYTSRLHSGVPSRFSGSGSGTDYSLTISNLEEEDIATYFCQQGNTLPPTFGGGTKLEIKRADAAPTV
modifications: heavy chain mAb HB10; light chain mAb HB10
notes: murine anti-EBV gp350 mAb, IgG1 κ; non-nAb
B4: HB7: murine anti-EBV gp350 mAb, IgG1 κ; SEQ ID NO: 112 / 113 (antibody, V domains shown)
VH: AELVRPGASVKLSCKALGYTFTDYEMHWVKQTPVHGLEWIGTISPGRSGTAYNQKFKGKATLTADKSSRTAYMELNSLTSEDSAVYYCSRYGHPSYLDVWGAGTTVTVSSAKTTPPSVYPLAPGSAAQTNSMVTLG
VL: KFMSTSVGDRVNITCKASQSVGNAVAWFQQKPGQSPKLLIYSASNRYTGIPDRFTGSGSGTDFTLTCNNMQSEDLADYFCQQYSSYPLTFGAGTKLELKRADAAPTV
modifications: heavy chain mAb HB7; light chain mAb HB7
B5: HB6: murine anti-EBV gp350 mAb, IgG1 κ; SEQ ID NO: 110 / 111 (antibody, V domains shown)
VH: PELRKPGETVKISCKASGYTFTDYSMHWVKQTPGKGLKWMGWINTRTGEPRYADDFKGRFAFSLETSASTAYLQINNLKNEDTATYFCAPYGYALDYWGQGTSVTVSSAKTTPPSVYPLAPGSAAQTNSMVTLG
VL: AILSASPGEKVTMTCRATSSVNYMHWYQQKPGSSPKPWIYATSNLASGVPARFSGSGSGTSYSLTISRVEAEDAATYYCQQWSSNPPTFGAGTKLELKRADAAPTV
modifications: heavy chain mAb HB6; light chain mAb HB6
B6: HB1: murine anti-EBV gp350 mAb, IgG1 κ; heavy chain SEQ ID NO: 102, light chain SEQ ID NO: 103; neutralizing (antibody, V domains shown)
VH: PGLVAPSQSLSITCTVSGFLLTTYGVHWVRQPPGKGLEWLGVIWAGGSTNYNSALMSRLSINKDISKSQVFLKMNSLQTDDTAMYYCTRDRGYGYLYAMDYWGQGTSVTVSSAKTTPPSVYPLAPGSAAQTNSMVTLG
VL: KFMSTSVGDRVSVTCKASQNVGTNVAWYQQKPGQSPKALIYSTSSRYTGVPDRFAGSGSGTDYTLTISNVQSEDLAEYFCQQYNTYPYTFGGGTRLDIKRADAAPTV
modifications: heavy chain mAb HB1; light chain mAb HB1
notes: murine anti-EBV gp350 mAb, IgG1 κ; neutralizing

Assays:
[1] = biological target: T1, purified EBV gp350/220 (recombinant EBV gp350 ectodomain) (Epstein-Barr virus, UniProt P03200); test: Indirect ELISA on recombinant EBV gp350 ectodomain; type: binding; conditions: for ELISA binding to purified EBV gp350/220: purified antibodies 10 μg/ml; for ELISA binding strength to gp350, compared with m72A1 / parental antibody: soluble gp350 0.5 μg/ml
T1 construct: purified EBV gp350 ectodomain protein (AA 4-863); purchased Immune Technology Corporation
Protocol: Briefly, immunoplates (Costar 3590; Corning Incorporated) were coated with 50 μl of 0.5 μg/ml recombinant EBV gp350 ectodomain (Immune Technology Corporation) diluted in 1× phosphate buffered saline (PBS, pH 7.4) and incubated overnight at 4° C. After washing three times with 1×PBS containing 0.05% (v/v) Tween 20 (washing buffer), plates were blocked with 100 μl washing buffer containing 2% (w/v) bovine serum albumin (BSA) (blocking buffer) then incubated for 1 h at room temperature and washed as above. 100 μl of hybridoma supernatant or 50 μl of 10 μg/ml purified mAbs was added to each well (in triplicate) and incubated for 2 h at room temperature. […] The plates were washed as described above, followed by incubation with 50 μl of goat anti-mouse IgG HRP-conjugated secondary antibody (1:2,000 diluted in 1×PBS) at room temperature for 1 h. The plates were washed again and 100 μl of chromogenic substrate 2,2′-azino-bis (3-ethylbenzothiazoline-6-sulphonic acid) (ABTS, Life Science Technologies) was added. The reaction was stopped using 100 μl of ABTS peroxidase stop solution containing 5% sodium dodecyl sulfate (SDS) in water. The absorbance was read at an optical density of 405 nm using an ELISA reader (Molecular Devices). All experiments were performed in triplicate and confirmed in three independent experiments.
ELISA binding of anti-gp350 and anti-gH/gL to soluble gp350 and gH/gL proteins was performed. Soluble EBV gp350 and gH/gL proteins were used as the target antigen at 0.5 μg/ml. 1× phosphate buffered saline (PBS) was used as negative (not shown) control. Bound antibodies were detected using HRP-conjugated anti-mouse or anti-human IgG (1:2,000).

[2] = test system: EBV-eGFP infection of Raji cells; test: EBV neutralization assay in Raji cells; type: cell-based, Epstein-Barr virus; conditions: for neutralization of EBV in Raji cells (in words): spin-column purified mAbs, 12.5, 25, 50 and 100 μg/ml
Protocol: EBV neutralization assay was performed in Raji cells as previously described (47). Briefly, purified individual anti-gp350 mAbs were incubated with purified AGS-EBV-eGFP (titer calculated to infect at least 8% of HEK293 cells seeded in 100 μl of serum-free DMEM) for 2 hours at 37° C. To represent EBV infection of B cells, the pre-incubated anti-gp350 mAbs/AGS-EBV-eGFP were used to infect 5×10^5 Raji cells seeded in a 96-well plate for 2 hours at 37° C. Neutralizing 72A1 and non-neutralizing 2L10 anti-gp350 mAbs served as positive and negative controls, respectively. Infected cells were washed three times with PBS to remove any unbound viruses and antibodies. Washed, infected cells were incubated in 96-well plates at 37° C. for 48 hours post-infection and the number of eGFP+ (infected) cells was determined using flow cytometry. All dilutions were performed in quintuplicate and the assays were repeated three times. Antibody EBV neutralization activity was calculated as: % neutralization=(EBValone−EBVmAb)/(EBValone)×100.
However, this antibody was recently reported to be a mixture of both functional and non-functional antibodies (50). […] The percentage of eGFP+ cells (percent infection) was determined using flow cytometry as described (47). The nAbs 72A1 and E1D1 were used as positive controls, whereas the anti-gp350 non-neutralizing mAb 2L10 and KSHV gH/gL mAb 54A1 were used as negative controls. Because HB4, HB13, HB15, HB16, HB19, HB21, and HB23 were confirmed to be polyclonal based on isotyping and/or sequence data, they were eliminated from further consideration in the neutralization assay. HB18 was not used in neutralization experiments because it was identical to HB8.
The purified eGFP-tagged-EBV was titered in Raji cells to determine percent EBV infection using a range of volumes (50-250 μl) (FIG. 5A). Then initial neutralization of EBV was conducted in Raji cells using purified mAbs at various concentrations (12.5, 25, 50, and 100 μg/ml).
EBV-eGFP+ cells were enumerated using flow cytometry.

[3] = biological target: T2, EBV gp350 stably expressed on CHO cells (Epstein-Barr virus, UniProt P03200); test: Epitope mapping by competitive cell binding assay with biotinylated mAbs
T2 construct: stably co-transfected with full-length pCAGGS-gp350/220 and pCI-puro vector; expressed in transfected cells; host or cells: CHO cells
Protocol: To evaluate conformation epitope mapping of the selected mAbs, competitive binding assays were conducted using biotinylated mAbs. A one-step antibody biotinylation kit (MACS Miltenyi Biotec) was used to biotinylate the mAbs. Approximately 1×10^5 CHO cells that stably expressed EBV gp350 were incubated for 2 hours with serially diluted ([…]) unlabeled competitor mAbs and non-specific anti-KSHV gH/gL 54A1 mAb. After being washed with PBS, the cells were incubated for 2 hours in the presence of 1 μg/ml biotinylated mAbs. To determine maximum binding, cells in which the biotinylated mAb was added in the absence of unlabeled mAbs were included in the assay. Cells were washed with PBS, followed by incubation for 1 hour with anti-biotin AF488 at a dilution of 1:500. After the final wash in PBS, cells were resuspended in 1% paraformaldehyde and analyzed by flow cytometry as described above. Percentage of inhibition was calculated as: 100−[(% fluorescent cells with competitor mAb/% fluorescent cells without competitor mAb)×100]. The complete prevention of binding of a biotinylated mAb by its unlabeled counterpart was used as a validation of the assay, as previously described (84).
At least seven unique CD21 binding epitopes on EBV gp350 have been predicted (Table 3).

T1 sequence (P03200 4-863): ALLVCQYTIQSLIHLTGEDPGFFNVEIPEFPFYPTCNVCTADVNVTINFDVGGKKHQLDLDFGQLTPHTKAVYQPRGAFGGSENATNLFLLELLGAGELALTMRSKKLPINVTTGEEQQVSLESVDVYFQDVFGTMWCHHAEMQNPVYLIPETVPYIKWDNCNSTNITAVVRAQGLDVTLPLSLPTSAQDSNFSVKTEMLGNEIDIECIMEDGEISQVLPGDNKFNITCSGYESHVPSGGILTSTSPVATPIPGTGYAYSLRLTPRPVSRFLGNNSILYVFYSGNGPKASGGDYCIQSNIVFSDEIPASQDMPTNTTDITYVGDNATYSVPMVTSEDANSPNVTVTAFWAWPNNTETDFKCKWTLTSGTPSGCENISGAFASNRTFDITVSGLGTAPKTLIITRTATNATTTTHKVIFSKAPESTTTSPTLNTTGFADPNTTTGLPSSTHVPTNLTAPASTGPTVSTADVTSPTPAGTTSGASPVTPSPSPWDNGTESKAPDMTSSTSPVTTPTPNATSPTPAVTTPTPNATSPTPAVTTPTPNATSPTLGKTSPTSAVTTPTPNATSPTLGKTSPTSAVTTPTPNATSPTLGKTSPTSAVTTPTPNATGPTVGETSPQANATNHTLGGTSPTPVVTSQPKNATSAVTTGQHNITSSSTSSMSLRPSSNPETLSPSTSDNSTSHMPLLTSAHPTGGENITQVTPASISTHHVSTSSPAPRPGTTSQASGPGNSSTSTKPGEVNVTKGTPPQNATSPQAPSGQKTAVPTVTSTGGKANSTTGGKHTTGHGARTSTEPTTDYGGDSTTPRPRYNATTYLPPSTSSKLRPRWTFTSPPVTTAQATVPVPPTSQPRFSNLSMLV
T2 sequence (P03200 whole entry): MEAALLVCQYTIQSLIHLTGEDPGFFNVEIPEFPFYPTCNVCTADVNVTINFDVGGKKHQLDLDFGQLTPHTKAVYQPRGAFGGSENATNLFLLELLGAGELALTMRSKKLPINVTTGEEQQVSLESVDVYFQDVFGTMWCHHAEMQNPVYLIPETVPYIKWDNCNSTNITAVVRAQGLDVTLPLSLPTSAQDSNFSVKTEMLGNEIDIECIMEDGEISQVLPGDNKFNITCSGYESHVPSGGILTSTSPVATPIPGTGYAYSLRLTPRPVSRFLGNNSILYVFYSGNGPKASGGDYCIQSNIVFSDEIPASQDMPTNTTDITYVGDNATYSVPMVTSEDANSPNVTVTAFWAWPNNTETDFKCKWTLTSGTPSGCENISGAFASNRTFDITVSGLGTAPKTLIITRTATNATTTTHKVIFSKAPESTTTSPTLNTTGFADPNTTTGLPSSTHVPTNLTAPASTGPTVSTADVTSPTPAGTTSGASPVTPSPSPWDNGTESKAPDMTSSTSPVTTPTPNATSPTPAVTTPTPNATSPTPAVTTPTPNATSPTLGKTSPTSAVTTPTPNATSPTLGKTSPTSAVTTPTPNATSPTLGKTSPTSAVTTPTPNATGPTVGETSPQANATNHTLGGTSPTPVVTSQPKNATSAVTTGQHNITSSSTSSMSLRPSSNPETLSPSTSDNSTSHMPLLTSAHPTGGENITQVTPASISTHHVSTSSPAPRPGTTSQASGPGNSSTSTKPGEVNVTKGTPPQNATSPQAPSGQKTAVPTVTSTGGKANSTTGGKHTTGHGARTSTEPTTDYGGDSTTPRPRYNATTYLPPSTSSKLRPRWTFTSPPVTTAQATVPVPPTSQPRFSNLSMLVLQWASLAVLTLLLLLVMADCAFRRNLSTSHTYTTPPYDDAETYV

Molecule	ELISA binding to purified EBV gp350/220 [1]	ELISA binding strength to gp350, compared with m72A1 / parental antibody [1]	neutralization of EBV in Raji cells (in words) [2]	other results
B1	+	equal to or greater than that of the positive control, m72A1	failed to neutralize EBV infection	–
B2	+	–	failed to neutralize EBV infection	–
B3	+	–	failed to neutralize EBV infection	blocking of EBV infection of Raji cells (nAb activity) ([2]; protein G and size-exclusion chromatography-purified mAbs, highest concentration 100 μg/ml): < 50%; % inhibition of biotinylated nAbs (biotinylated m72A1) ([3]; unlabeled mAb 67.5 μg/ml, biotinylated m72A1 1 μg/ml): 13%; % inhibition of biotinylated nAbs (biotinylated m72A1) ([3]; unlabeled mAb 125 μg/ml, biotinylated m72A1 1 μg/ml): 16%; % inhibition of biotinylated nAbs (biotinylated m72A1) ([3]; unlabeled mAb 250 μg/ml, biotinylated m72A1 1 μg/ml): 14%; % inhibition of biotinylated nAbs (biotinylated m72A1) ([3]; unlabeled mAb 500 μg/ml, biotinylated m72A1 1 μg/ml): 12%
B4	+	equal to or greater than that of the positive control, m72A1	failed to neutralize EBV infection	–
B5	+	–	failed to neutralize EBV infection	–
B6	+	–	dose-dependent neutralization	blocking of EBV infection of Raji cells (in words) ([2]; protein G and size-exclusion chromatography-purified mAbs, 12.5-100 μg/ml): blocked EBV infection in a dose-dependent manner; competitive binding versus m72A1 and h72A1 (in words) ([3]; biotinylated antibodies): bound targets that overlapped with those of both m72A1 and h72A1; antigen binding competition with biotinylated m72A1 (in words) ([3]; biotinylated m72A1 1 μg/ml, unlabeled mAbs 500-67.5 μg/ml): Antigen binding competition was observed
